Results taken from patent publication US20050271676A1, “Inducing cellular immune responses to human immunodeficiency virus-1 using peptide and nucleic acid compositions” (Epimmune Inc., priority 1993, published 2005).
No end group written: not given here.

What was measured:
HLA-DRB1*0701 (DR7) = target: T1, HLA-DRB1*0701 (DR7) (Homo sapiens, UniProt P01903+P01911, A100R/A102G/A103Q/D57E/D86V/E43K/F76Y/K127E/L162R/M171V/P40G/Q125H/Q99D/R33Q/R42Y/R54Q/S133A/S66F/T210M/V115G/Y107V/Y59L/Y89S); test: biochemical; format: binding
T1 construct: endogenous in cells; host or cells: Pitout

HLA-DRB1*1302 (DR6w19) = HLA-DRB1*1302 (DR6w19) (Homo sapiens, UniProt P01903+P01911, A100E/A169T/K41T/L162R/M171V/P40S/Q125H/Q178H/Q39Y/Q99D/R42S/S66N/T262R/V115G/W38E/Y61H); test: purified HLA class II binding assay, DRB1*1302 (DR6w19); conditions: for DR6w19 binding information: Table XXb, HIV DR 3a motif peptides
HLA-DRB1*0802 (DR8w2) = target: T2, HLA-DRB1*0802 (DR8w2) (Homo sapiens, UniProt P01903+P01911, A100R/A103L/A169T/F76Y/H45Y/I96F/K41T/L162R/M171V/P40S/Q125H/Q178H/Q39Y/Q99D/R218S/R42G/S66Y/V115G/W38E); test: biochemical; format: binding
T2 construct: endogenous in cells

HLA-DRB1*0301 (DR3) = target: T3, HLA-DRB1*0301 (DR3) (Homo sapiens, UniProt P01903+P01911, A100K/A102G/A103R/A169T/F55Y/I96L/K41T/L162R/M171V/P40S/Q125H/Q178H/Q39Y/R42S/S66N/T106N/T262R/W38E/Y61H); test: purified HLA class II binding assay, DRB1*0301 (DR3), pH 4.5; conditions: for DR3 binding information: Table XXb, HIV DR 3a motif peptides
T3 construct: endogenous in cells; host or cells: MAT

HLA-A*0201 = HLA-A*0201 (Homo sapiens, UniProt P04439, D140Y/D185E/D98H/E176V/E277Q/G131W/G231S/I119V/I121R/I166T/I218V/L300P/L318F/N151K/N90K/P208A/P217A/Q86G/Q94H/R138H/R169H/T345S); test: purified HLA class I binding assay, A*0201; conditions: for A*0201 (binding information): Table VIII
HLA-A*0202 = HLA-A*0202 (Homo sapiens, UniProt P04439, D140Y/D185E/D98H/E176V/E277Q/G131W/G231S/I119L/I121R/I166T/I218V/L180W/L300P/L318F/N151K/N90K/P208A/P217A/Q67R/Q86G/Q94H/R138H/R169H/T345S); test: purified HLA class I binding assay, A*0202
HLA-A*0203 = HLA-A*0203 (Homo sapiens, UniProt P04439, A173T/D140Y/D185E/D98H/E277Q/G131W/G231S/I119V/I121R/I166T/I218V/L180W/L300P/L318F/N151K/N90K/P208A/P217A/Q86G/Q94H/R138H/R169H/T345S); test: purified HLA class I binding assay, A*0203
HLA-A*0206 = HLA-A*0206 (Homo sapiens, UniProt P04439, D140Y/D185E/D98H/E176V/E277Q/F33Y/G131W/G231S/I119V/I121R/I166T/I218V/L300P/L318F/N151K/N90K/P208A/P217A/Q86G/Q94H/R138H/R169H/T345S); test: purified HLA class I binding assay, A*0206
HLA-A*6802 = HLA-A*6802 (Homo sapiens, UniProt P04439, A269V/D140Y/D185E/E176V/E277Q/E87N/F33Y/G231S/I121R/I166T/I218V/L180W/L300P/L318F/N151K/P208A/P217A/Q86R/R138H/R169H/S129P/T345S/V36M); test: purified HLA class I binding assay, A*6802
[1] = Table VIII, HIV A02 Super Motif Peptides with Binding Information, unit not given

T3 sequence (P01903 26-254 partner, other chains not shown): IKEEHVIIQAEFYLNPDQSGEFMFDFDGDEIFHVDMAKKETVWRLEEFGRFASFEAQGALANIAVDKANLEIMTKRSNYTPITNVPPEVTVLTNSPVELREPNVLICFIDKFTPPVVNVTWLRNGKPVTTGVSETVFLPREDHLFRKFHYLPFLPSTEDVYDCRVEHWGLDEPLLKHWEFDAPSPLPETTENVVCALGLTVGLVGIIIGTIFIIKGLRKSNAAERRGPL

Q: How did the DR7 binding information (HLA-DRB1*0701 (DR7)) turn out when FSPEVIPMF was run?
A: Its DR7 binding information is 0.0023.

Q: Which DR6w19 binding information (HLA-DRB1*1302 (DR6w19)) does the source give for FYVDGAANR here?
A: The DR6w19 binding information was −0.0002.

Q: And the DR7 binding information (HLA-DRB1*0701 (DR7))?
A: The DR7 binding information was −0.0014.

Q: What about the DR8w2 binding information (HLA-DRB1*0802 (DR8w2)) of the same sequence?
A: The DR8w2 binding information was 0.0035.

Q: How did the IC50 (HLA-DRB1*0301 (DR3)) turn out when GAVVIQDNSDLKVVP [Peptide 35.0133] was run?
A: The IC50 was 1 µM.

Q: Which DR7 binding information (HLA-DRB1*0701 (DR7)) does the source give for IDPENPYNT here?
A: The DR7 binding information was −0.0005.

Q: What does the source list for IKQEFGIPY?
A: DR6w19 binding information (HLA-DRB1*1302 (DR6w19)): 0.0123; DR7 binding information (HLA-DRB1*0701 (DR7)): −0.0014; DR8w2 binding information (HLA-DRB1*0802 (DR8w2)): −0.0009

Q: Which results are given for ILRQRKTDR?
A: DRw619 binding information (HLA-DRB1*1302 (DR6w19); Table XXd, HIV DR 3b motif peptides): 0.0016; DR7 binding information (HLA-DRB1*0701 (DR7)): −0.0014; DR8w2 binding information (HLA-DRB1*0802 (DR8w2)): 0.0270

Q: How did the DR6w19 binding information (HLA-DRB1*1302 (DR6w19)) turn out when IVTDSQYAL was run?
A: The DR6w19 binding information was 0.0108.

Q: And the DR7 binding information (HLA-DRB1*0701 (DR7))?
A: The DR7 binding information was −0.0014.

Q: What about the DR8w2 binding information (HLA-DRB1*0802 (DR8w2)) of the same sequence?
A: Its DR8w2 binding information is −0.0009.

Q: And the “A*0201 (binding information)” value (HLA-A*0201; HIV A02 super motif peptides, unit not given)?
A: Its value is 0.0024.

Q: With “KCQLKOEAMHGQVDC (KCQLKGEAMHGQVDC; HUMAN IMMUNO… VIRUS)” as the sequence, how does the DR3 binding information (HLA-DRB1*0301 (DR3)) read?
A: Its DR3 binding information is −0.0017.

Q: Which IC50 (HLA-A*0202) does the source give for KLNWASQIYA [25.0161] here?
A: The IC50 was 3.91 µM.

Q: What about the IC50 (HLA-A*0203) of the same sequence?
A: Its IC50 is 0.4 µM.

Q: What about the IC50 (HLA-A*0206) of the same sequence?
A: The IC50 was 6.17 µM.

Q: With LIFGWCFKLV as the sequence, how does the “A*0202 binding information” value (HLA-A*0202; [1]) read?
A: The value was 0.0880.

Q: What about the “A*0203 binding information” value (HLA-A*0203; [1]) of the same sequence?
A: Its value is 0.0540.

Q: And the “A*6802 binding information” value (HLA-A*6802; [1])?
A: The value was 6.5000.

Q: And the “A*0206 binding information” value (HLA-A*0206; [1])?
A: The value was 0.0640.

Q: And the “A*0201 (binding information)” value (HLA-A*0201; HIV A02 Super Motif Peptides with Binding Information, unit not given)?
A: Its value is 0.0170.

Q: How did the IC50 (HLA-A*0202) turn out when LLWKGEGAVV [1069.33] was run?
A: Its IC50 is 0.632 µM.

Q: What about the IC50 (HLA-A*0203) of the same sequence?
A: Its IC50 is 0.025 µM.

Q: And the IC50 (HLA-A*0206)?
A: The IC50 was 0.771 µM.

Q: How did the DR3 binding information (HLA-DRB1*0301 (DR3)) turn out when LVEICTEMEKECKIS was run?
A: Its DR3 binding information is −0.0017.

Q: How did the DR7 binding information (HLA-DRB1*0701 (DR7)) turn out when VAKEIVASC was run?
A: Its DR7 binding information is 0.0015.

Q: How did the DR6w19 binding information (HLA-DRB1*1302 (DR6w19)) turn out when VIQGNSDIK was run?
A: The DR6w19 binding information was 0.0447.

Q: What about the DR7 binding information (HLA-DRB1*0701 (DR7)) of the same sequence?
A: The DR7 binding information was −0.0014.

Q: What about the DR8w2 binding information (HLA-DRB1*0802 (DR8w2)) of the same sequence?
A: The DR8w2 binding information was −0.0009.

Q: What does the source list for VLAEAMSQV?
A: DR7 binding information (HLA-DRB1*0701 (DR7)): 0.0025; A*0201 binding (HIV A02 Super Motif Peptides with Binding Information) (HLA-A*0201; purified HLA-A*0201, unit not given): 0.1100

Q: With VVEEKAFSP as the sequence, how does the DR7 binding information (HLA-DRB1*0701 (DR7)) read?
A: Its DR7 binding information is 0.0003.

Q: With WAGIKQEFGIPYNPQ [Peptide 35.0131] as the sequence, how does the IC50 (HLA-DRB1*0301 (DR3)) read?
A: Its IC50 is 0.3 µM.

Q: WMTNNPPIPV [25.0139] was tested. Which IC50 (HLA-A*0202) did it give?
A: Its IC50 is 3.07 µM.

Q: What about the IC50 (HLA-A*0203) of the same sequence?
A: The IC50 was 0.0169 µM.

Q: And the IC50 (HLA-A*6802)?
A: The IC50 was 2.22 µM.

Q: And the IC50 (HLA-A*0201)?
A: Its IC50 is 0.098 µM.
